Assay results as given in PMC11919473, “Synthesis and characterisation of DOTA‐kisspeptin‐10 as a potential gallium‐68/lutetium‐177 pan‐tumour radiopharmaceutical” (Journal of Neuroendocrinology, 2025).
Like-named read-outs stand apart in the source and are kept apart here.

Legend:
KISS1R = target: T1, KISS1R (Homo sapiens, UniProt Q969F8); test: Inositol phosphate (IP) accumulation assay in HEK 293‐T cells transiently transfected with KISS1R; format: cell-based; settings: for EC50: HEK 293‐T cells expressing KISS1R
T1 construct: expressed in transfected cells; host or cells: HEK 293-T cells, transient transfection with XtremeGene HP
T1 sequence (Q969F8 whole entry): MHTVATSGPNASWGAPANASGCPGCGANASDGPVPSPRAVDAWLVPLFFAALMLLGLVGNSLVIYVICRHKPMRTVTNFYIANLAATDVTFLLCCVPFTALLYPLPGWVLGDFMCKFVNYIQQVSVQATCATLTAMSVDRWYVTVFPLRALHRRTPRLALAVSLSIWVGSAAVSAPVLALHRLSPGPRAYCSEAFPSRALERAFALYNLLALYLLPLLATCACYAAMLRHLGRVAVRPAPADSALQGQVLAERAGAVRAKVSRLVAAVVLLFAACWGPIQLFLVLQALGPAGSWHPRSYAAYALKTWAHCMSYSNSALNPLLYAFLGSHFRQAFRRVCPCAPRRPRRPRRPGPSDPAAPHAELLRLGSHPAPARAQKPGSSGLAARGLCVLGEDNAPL
Protocol: HEK 293‐T cell culturing and the IP accumulation assay were performed as described by Newton et al.[15], [16] The IP assay measures the response of the cells to ligands that is a measure of the binding affinity and stimulation of intracellular signalling. This assay was applied to determine whether the novel ligand retained the same or improved activity as KP10.
HEK 293‐T cells were cultured and maintained using DMEM (10% FBS) media supplemented with Glutamax at 37°C, 5% CO2 and 95% relative humidity. HEK 293‐T cells were passaged at 90% confluency using Trypsin. HEK 293‐T cells were plated out into 24‐well plates at a density of 1 × 10^5 cells/well. Each well was pre‐coated with Matrigel at a 1:30 dilution to ensure adhesion to the well. KISS1R gene construct was transiently transfected into the HEK 293‐T cells at a concentration of 10 ng/μL of KISS1R using XtremeGene HP (1:2 ratio) DNA transfection reagent. Cells were incubated overnight at 37°C at 5% CO2.
For the IP assay, the HEK 293‐T cells were incubated with myoinositol‐[2‐3H] […] The radiolabelled IPs were separated using a Dowex 100–200 mesh resin ion‐exchange chromatography, and the radioactivity (cpm) was measured using liquid scintillation (Packard Tricarb 2100 TR liquid scintillation analyser TRI‐CARB 4910TR 110 V Liquid Scintillation Counter, Perkin‐Elmer, USA). […] The results were analysed by doing sigmoidal regression to determine the EC 50 and then compared with their respective normalised ligand signalling assay.
The accumulation of the IPs measured for cells transfected with XtremeGene without KISS1R and treated with maximal stimulation of KP10 (1 × 10^−6 M) was subtracted from the measured accumulation of cells stimulated with DOTA‐KP10 over a dose range ([…]–1 × 10^−6 M) that were transfected with KISS1R in the same assay.
For the IP assay, the data were fitted using a nonlinear regression to determine Emax and EC50. Data collected from the ex vivo biodistribution were evaluated using the Kruskal–Wallis analysis. […]

physchem = format: physicochemical
Protocol: The method published by Jain and co‐workers was used.[21] Briefly, 100 μL (± 100 MBq) of the labelled [^68Ga]Ga‐DOTA‐KP10 was dispersed in a 1‐mL phosphate‐buffered saline (PBS) and octanol mixture (0.9:1). The samples were vortexed (1 min) and then centrifuged (5 min, 6000 rpm). A sample (200 μL) from each phase was taken, and the activity was measured in the Hidex AMG automated gamma counter (Turku, Finland). The partition coefficient (log P) was expressed as the logarithm of the ratio of counts from the n‐octanol fraction versus that of the aqueous fraction.[21], [22]

[1] = format: in vitro ADME, human
Protocol: The red blood cell (RBC) binding assay was performed by the method described by Shi and co‐workers.[22] In brief, radiolabelled [^68Ga]Ga‐DOTA‐KP10 (740 kBq in 10 μL) was mixed with 100 μL of human blood drawn up in the presence of heparin. The mixture was incubated in a shaking incubator at 37°C. Samples ([…]) were collected at two time points, 10 and 30 min. Plasma and blood cells were separated by centrifugation (2000 rpm, 5 min). The plasma was removed, and the blood cells were washed twice with 500 μL of normal saline (0.9% NaCl) that was then added to the plasma fraction. The amount (%) of labelled compound that was bound to the RBC was determined by the ratio of distribution between the plasma and blood cell fraction.[22]

[2] = format: in vitro ADME
Protocol: The protein binding assay was done as described by Mdlophane et al.[18] In brief, [^68Ga]Ga‐DOTA‐KP10 was incubated for 0, 60 and 120 min in serum at 37°C. Proteins were precipitated in ice‐cold acetonitrile (500 μL) and centrifuged (5000 rpm, 10 min). The supernatant was removed, and the protein pellet was washed with acetonitrile (250 μL). The washed protein pellets and supernatants were measured in an automated gamma‐counter (Hidex, Finland).

[3] = format: in vitro ADME, human; remark: listed apart in the source
Protocol: Stability studies were performed in triplicate using [^68Ga]Ga‐DOTA‐KP10 spiked human serum, plasma or whole blood (samples were removed at 5, 60 and 120 min with incubation at 37°C). […] The samples taken (200 μL) at the selected time points were treated with ice‐cold acetonitrile (500 μL) and thereafter filtered with a 0.22‐μm filter to remove all residual proteins in the extract. This sample was then analysed by the HPLC method as described under Section 2.2.4.

[4] = parameters: species or system Sprague–Dawley rats; settings: rat, in vivo, iv
Text: All procedures followed during the animal studies adhered to institutional and South African national guidelines for the care and use of laboratory animals (SANS10386:2021). Ethical approval for the study was obtained from the Research Animal Ethics Committee of North-West University (NWU-00560-19-S5) and the University of Pretoria (149/2019), South Africa. The animals were provided by the Department of Science and Technology/North-West University Preclinical Drug Development Platform (PCDDP) Vivarium. The study was conducted at the Preclinical Imaging Facility (PCIF) of the Nuclear Medicine Research Infrastructure (NuMeRI), South Africa. Five healthy Sprague-Dawley rats (male, 6-8 weeks, ±200 g) were enrolled into the study. All animals had ad libitum access to a conventional rodent diet and water. Animals were maintained on a 12-h artificial day/night cycle and supplied with corn cob bedding and nesting material for cage enrichment. […] Hybrid images were viewed and analysed using the InterviewFusionTM software (Mediso, Hungary). A qualitative visual analysis was done on all acquisitions, and blood standardized uptake value values were calculated. […] Data collected from the ex vivo biodistribution were evaluated using the Kruskal-Wallis analysis. […] Organs were measured for activity and expressed as the percentage injected dose per gram of the organ (%ID/g). […]

in vivo = test: in vivo; parameters: species or system Sprague–Dawley rats; settings: rat; for tissue uptake at 2.5 h: male, Sprague-Dawley, iv, 18.8 MBq, total radioactivity
Protocol: After the final image was acquired (150 min postinjection), the animals were euthanised and ex vivo biodistribution was performed. Euthanasia was performed by an overdose of isoflurane (without waking up post‐scan) followed by decapitation. A quantitative analysis of the radioactivity biodistribution and uptake in various organs of the rats was conducted. Following micro‐PET/CT imaging, the anesthetised animals were euthanised by decapitation and blood was collected into pre‐weighed BD SST vacutainer tubes (thermos Fisher Scientific, Johannesburg, South Africa). The blood samples were centrifuged (6000 rpm, 5 min) to separate the serum from the blood cells. The blood and serum along with the other dissected tissues and organs (heart, liver, spleen, intestines, testes, stomach, lungs and brain) were weighed, and the radioactivity was measured in the automated gamma counter (Hidex AMG, Turku, Finland). The radioactivity per organ was expressed as the percentage injected dose per gram of the organ (% ID/g). […] Data collected from the ex vivo biodistribution were evaluated using the Kruskal–Wallis analysis. A chi‐squared that was less than the H‐statistic was used to indicate significant differences between the concentrations within regions of interest. Organs were measured for activity and expressed as the percentage injected dose per gram of the organ (%ID/g). A multipoint regression model (exponential fit) was used to estimate blood‐half life.

`CC(C)C[C@H](NC(=O)CNC(=O)[C@H](Cc1ccccc1)NC(=O)[C@H](CO)NC(=O)[C@H](CC(N)=O)NC(=O)[C@H](Cc1c[nH]c2ccccc12)NC(=O)[C@H](CC(N)=O)NC(=O)[C@@H](N)Cc1ccc(O)cc1)C(=O)N[C@@H](CCCNC(=N)N)C(=O)N[C@@H](Cc1ccccc1)C(N)=O` [KP10, kisspeptin‐10] gave an EC50 (KISS1R; 1 h ligand incubation at 37°C, 10 mM LiCl, mean ± SEM, N = 4, read-out: EC50 Mean nM ± SEM (N = 4)) of 1.87 ± 0.095 nM.
In the case of `CC(C)C[C@H](NC(=O)CNC(=O)[C@H](Cc1ccccc1)NC(=O)[C@H](CO)NC(=O)[C@H](CC(N)=O)NC(=O)[C@H](Cc1c[nH]c2ccccc12)NC(=O)[C@H](CC(N)=O)NC(=O)[C@H](Cc1ccc(O)cc1)NC(=O)CN1CCN(CC(=O)O)CCN(CC(=O)O)CCN(CC(=O)O)CC1)C(=O)N[C@@H](CCCNC(=N)N)C(=O)N[C@@H](Cc1ccccc1)C(N)=O` [[^68Ga]Ga‐DOTA‐KP10, metal not drawn], the logD (physchem) is reported as -2, the “Binding to red blood cells at 10 min” value [1] is reported as 6.72 ± 0.37% and the “Binding to red blood cells at 30 min” value [1] is reported as 6.35 ± 2.7%. For the same compound, the “Radioactivity bound to plasma proteins after initiating the incubation (0 min)” value [2] was 28.2 ± 1.35%, the “Radioactivity bound to plasma proteins at 2 h” value [2] was 67.99 ± 3.56% and the “Stability in plasma at 5 min” value [3] was “formation of a degradation product”. For the same compound, the “Stability in whole blood at 5 min” value [3] was “formation of a degradation product”, the “Accumulation in the brain or lungs on micro‐PET/CT” value [4] was “no noticeable accumulation” and the “Uptake in the hypothalamus on micro‐PET/CT images” value [4] was “No uptake was observed”. For the same compound, the tissue uptake at 2.5 h (in vivo; Ex vivo radioactivity in kidneys) was 1.5 ± 0.2 %ID/g, the tissue uptake at 2.5 h (in vivo; Ex vivo radioactivity in organs other than kidneys) was under 0.5 %ID/g and the “Serum:blood ratio” value (in vivo) was “sixfold to eightfold”.
`CC(C)C[C@H](NC(=O)CNC(=O)[C@H](Cc1ccccc1)NC(=O)[C@H](CO)NC(=O)[C@H](CC(N)=O)NC(=O)[C@H](Cc1c[nH]c2ccccc12)NC(=O)[C@H](CC(N)=O)NC(=O)[C@H](Cc1ccc(O)cc1)NC(=O)CN1CCN(CC(=O)O)CCN(CC(=O)O)CCN(CC(=O)O)CC1)C(=O)N[C@@H](CCCNC(=N)N)C(=O)N[C@@H](Cc1ccccc1)C(N)=O` [DOTA‐KP10] showed an EC50 (KISS1R; four independent experiments, read-out: EC50) of 3.99 nM and an Emax (KISS1R; HEK-293T, KP10 maximal response set at 100%, read-out: Maximal response as % of that of KP10) of 97.8%.
